Measured values taken from the nanobody polyreactivity screen of Harvey et al. (2022).

Assay: yeast display, Sf9 membrane polyspecificity reagent, FACS + sequencing; frameworks hold sequencing errors
How it was run: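 A nanobody's polyreactivity label depends on the gate it was sorted from. Yeast display cells were stained with 10% biotinylated, detergent-solubilized Sf9 membrane reagent for 1 hour at 4 °C, enriched on streptavidin microbeads and sorted by FACS. The low and high (top ~1%) gates were set on anti-HA fluorescence for expression and streptavidin fluorescence for reagent binding.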

Sequence | polyreactivity (PSR sort gate)
QVQLVESGGGLVQAGGSLRLSCAASGRTFVRYAMGWYSQAPGKERELVAAISGIATRTYYADSVKGRFTISRDNAKNTVYLQMNSLKPEDTAVYYCNALYAKYDYWGQGTQVTVSS | high polyreactivity
QVQLVESGGGLVQAGGSLRLSCAASGRTFVSNAMGWYRQAPGKERELVAAITQSGGSTYADSVKGRFTISRDNAKNTVYLQLNSLKPEDTAVYYCNSEHAFVGTYYERHDYWGQGTQVTVSS | low polyreactivity
QVQLVESGGGLVQAGGSLRLSCAASGRTFVSNAMGWYRQAPGKERELVAGINWTDDSTYYADSVKGRFTISRDNAKNTVYLQINSLKPEDTAVYYCAADSLEFAWPRFDYWGQGTQVTVSS | low polyreactivity
QVQLVESGGGLVQAGGSLRLSCAASGRTFVSNDMGWYRQAPGKERELVATISSGASTYYADSVKGRFTISRDNAKNTVYLQMNSLKPEDTAVYYCAAEVLVFGGGYDYWGQGTQVTVSS | low polyreactivity
QVQLVESGGGLVQAGGSLRLSCAASGRTFVSYAMGWYRQAPGKERELVAAISGSGGSTYYADSVKGRFTISPDNAKKTGYLQMNSLKPEDTAVYYCHKGRPRKVNSEGFGYWGQGTQVTVSS | high polyreactivity
QVQLVESGGGLVQAGGSLRLSCAASGRTFVTNAMGWYRQAPGKERELVAAISGTGGSTYYADSVKGRFTISRDNAKNTVYLQMNSLKPEDTAVYYCNKDYHVRYYYWGQGTLVTVSS | low polyreactivity
QVQLVESGGGLVQAGGSLRLSCAASGRTFVTNAMGWYRQAPGKERELVAAISSSGGSTYYADSVKGRFTISRDKAKNTVYLQMNSLKPEDTAVYYCAVGGQTKGQYDYWGQGTQVTVSS | low polyreactivity
QVQLVESGGGLVQAGGSLRLSCAASGRTFVTYAMGWYRQAPGKEREFVAAISRNGGSTYYADSVKGRFTISRDNAKNTVYLQMNSLKPEDTAVYYCAAYAYIFLDWGGYPYYLYEYDYWGQGTQVTVSS | low polyreactivity
QVQLVESGGGLVQAGGSLRLSCAASGRTFVTYAMGWYRQAPGKEREFVAAITWSTGTSTYYADSVKGRFTISRDNAKNTVYLQMNSLKPEDTAVYYCAVDIWWPTWYYIYWGQGTQVTVSS | low polyreactivity
QVQLVESGGGLVQAGGSLRLSCAASGRTFVTYAMGWYRQAPGKEREFVASISSDSGNTYYADSVKGRFTISRDNAKNTLYFQMNSLKPEDTAVYYCARRKVRYWSYPAAHYYWGQGTQVTVSS | low polyreactivity
QVQLVESGGGLVQAGGSLRLSCAASGRTFVVNAMGWYRQAPGKEREFVAAISYRGDSTYYADSVKGRFTISRDNAKNTVYLQMNSLKPEDTAVYYCAAQYRYGRYTRDYWGQGTQVTVSS | high polyreactivity
QVQLVESGGGLVQAGGSLRLSCAASGRTFVVNAMGWYRQATGKERELVAAITRRGGITYYADSVKGRFTISRDTAKNTVYFQMNSLKPEDTAVLYCAADRSYYPDTRSTYGYNYWGQGTQVTVSS | low polyreactivity
QVQLVESGGGLVQAGGSLRLSCAASGRTFVVNVMGWYRQAPGKERELVAAISSVVSTNYADSVKGRFTISRDNAKNTVYLQMNCLKPEDTAVYYCAADVRGAYSTYLYTTTIRYDYWGQGTQVTVSS | low polyreactivity
QVQLVESGGGLVQAGGSLRLSCAASGRTFVVYGMGWYRQAPGKERELVATITSGGSTDYADSVKGRFTIARDNAKNTVYLQMNSLKPEDTAVYYCAKETSYTNDDDYWGQGTQVTVSS | low polyreactivity
QVQLVESGGGLVQAGGSLRLSCAASGRTFVWNAIGWYRQAPGKERELVDAITSGGSTNYADSVKGRFTISRDNAKNTVYLQMNSLKPEDTAVYYCAADWHYSPRMDYWGQGTLVTVSS | low polyreactivity
QVQLVESGGGLVQAGGSLRLSCAASGRTFVYNAMGWYRQAPGKERELVAAINWRGGSTYYADSVKGRFTISRDNAKNTVSLQMNSLKPEDTAVYYCAPRNVYVWYDYWGQGTQVTVSS | low polyreactivity
